These are literature values, as cited in paper PMC10977282.

The data set concerns the target DR5 (Homo sapiens) (UniProt O14763).

As for OPG (from UniProt O00300), the Kd is less than 400 nM.
